Data published in PMC4880302.

Legend:
[1] = target: RPM-1 chimeric HMPV/RSV F protein (HMPV F with the grafted RSV site A/II palivizumab/motavizumab epitope) (human metapneumovirus, B2 strain); experiment: SEC; gel filtration of complexes made of RPM-1 and Fab
[2] = target: RPM-1 chimeric HMPV/RSV F protein (HMPV F with the grafted RSV site A/II palivizumab/motavizumab epitope) (human metapneumovirus, B2 strain); experiment: SPR; BiOptix 404pi; F proteins captured on NiHC1000m chip through their C-terminal His tag to 120 RU; Fab injected at 300 to 0.14 nM, 100 ul/min; 10 mM HEPES pH 7.2, 150 mM NaCl, 0.005% Tween 20, 50 uM EDTA; simple Langmuir model

B1: motavizumab Fab (affinity-matured variant of palivizumab, anti-RSV F site II/A) (Fab, V domains shown)
VH: QVTLRESGPALVKPTQTLTLTCTFSGFSLSTAGMSVGWIRQPPGKALEWLADIWWDDKKHYNPSLKDRLTISKDTSKNQVVLKVTNMDPADTATYYCARDMIFNFYFDVWGQGTTVTVSS
VL: DIQMTQSPSTLSASVGDRVTITCSASSRVGYMHWYQQKPGKAPKLLIYDTSKLASGVPSRFSGSGSGTEFTLTISSLQPDDFATYYCFQGSGYPFTFGGGTKVEIK
[1]
  stoichiometry N (Fabs per F trimer): 3
[2]
  Kd: 7.11 pM
  koff: 1.8e-05 s⁻¹
  kon: 2.41e+06 M⁻¹ s⁻¹
  t1/2: 10.9 h
